Consider one molecule from patent publication US20220332804A1 (CSL INNOVATION, published 2022).

Holding throughout (assay): SPR, KD relative to WT C2;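 also: biacore SPR at 37 °C, anti-C2 mAbs captured on anti-human IgG chips with alanine or serine point mutants of C2 as analyte, KD from 1:1 fit compared with wild-type C2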
In one experiment the target is T1, human C2 E267A (human, UniProt P06681 21-752).
T1 sequence: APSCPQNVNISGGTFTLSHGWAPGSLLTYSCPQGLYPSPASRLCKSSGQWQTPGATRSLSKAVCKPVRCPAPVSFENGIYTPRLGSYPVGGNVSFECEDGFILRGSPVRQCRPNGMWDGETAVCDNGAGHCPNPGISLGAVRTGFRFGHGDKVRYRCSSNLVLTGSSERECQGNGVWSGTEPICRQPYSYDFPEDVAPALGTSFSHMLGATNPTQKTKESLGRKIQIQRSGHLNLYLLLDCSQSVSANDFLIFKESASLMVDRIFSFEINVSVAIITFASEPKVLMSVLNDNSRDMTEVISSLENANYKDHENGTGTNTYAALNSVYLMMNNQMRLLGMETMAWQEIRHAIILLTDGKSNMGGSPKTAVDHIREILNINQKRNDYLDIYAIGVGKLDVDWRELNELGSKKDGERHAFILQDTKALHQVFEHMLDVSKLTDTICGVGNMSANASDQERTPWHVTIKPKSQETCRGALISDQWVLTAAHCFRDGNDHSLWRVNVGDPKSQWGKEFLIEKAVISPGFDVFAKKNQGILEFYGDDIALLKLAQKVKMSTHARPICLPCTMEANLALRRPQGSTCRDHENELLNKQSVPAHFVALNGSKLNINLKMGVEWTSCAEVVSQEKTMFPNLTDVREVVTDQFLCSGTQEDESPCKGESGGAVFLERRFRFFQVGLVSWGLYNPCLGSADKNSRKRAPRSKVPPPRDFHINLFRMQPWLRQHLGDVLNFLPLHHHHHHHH

In a further experiment the target is T2, human C2 Y328A (human, UniProt P06681 21-752).
T2 sequence: T1 sequence with A247E, Y308A

A further experiment deals with T3, human C2 D419A (human, UniProt P06681 21-752).
T3 sequence: T1 sequence with A247E, D399A

Another experiment concerns the target T4, human C2 S456A (human, UniProt P06681 21-752).
T4 sequence: T1 sequence with A247E, S436A

Where a chain is given by its changes, count along the chain named.

B1: RF16-242 (antibody, human IgG4 S228P, lambda, V domains shown)
VH: EVQLLQSGAEVKKPGESLKISCKGSGYSFTSYWIGWVRQMPGKGLEWMGIIYPGDSDTRYSPSFQGQVTISADKSISTAYLQWSSLKASDTAMYYCARRGHYGDYFDYWGQGTLVTVSS
VL: SYELTQPPSVSVSPGQTARITCSGDALPKKYAYWYHQKSGQAPVLVIYEDRRRPSEIPERFSGSSSGTMATLTITGAQVEDEGVYFCYSRDRAGNQRVFGGGTQLTVLG
notes: pH-dependent anti-C2 antibody from a phage display library
Take B1: the Fold diff with human C2 E267A came to 2 fold; with human C2 Y328A it was 6 fold; in the experiment with human C2 D419A, 2 fold; in the experiment with human C2 S456A it was 9 fold.
